Target: HLA-B*07 (Homo sapiens, UniProt P01889)
Experiment: MHC binding assay (UV-ligand exchange, ELISA of stabilized MHC complexes)
Conditions: peptide exchange yield on HLA-B*07, UV-ligand exchange
Description: Candidate peptides for T cell based therapies according to the present invention were further tested for their MHC binding capacity (affinity). The individual peptide-MHC complexes were produced by UV-ligand exchange, where a UV-sensitive peptide is cleaved upon UV-irradiation and exchanged with the peptide of interest as analyzed. Only peptide candidates that can effectively bind and stabilize the peptide-receptive MHC molecules prevent dissociation of the MHC complexes. To determine the yield of the exchange reaction, an ELISA was performed based on the detection of the light chain (β2m) of stabilized MHC complexes. The assay was performed as generally described in Rodenko et al. (Rodenko et al., 2006)
96 well MAXISorp plates (NUNC) were coated over night with 2 ug/ml streptavidin in PBS at room temperature, washed 4× and blocked for 1 h at 37° C. in 2% BSA containing blocking buffer. […] Peptide-MHC monomers of the UV-exchange reaction were diluted 100-fold in blocking buffer. Samples were incubated for 1 h at 37° C., washed four times, incubated with 2 ug/ml HRP conjugated anti-[…] for 1 h at 37° C., washed again and detected with TMB solution that is stopped with […]. Absorption was measured at 450 nm. Candidate peptides that show a high exchange yield (preferably higher than 50%, most preferred higher than 75%) are generally preferred for a generation and production of antibodies or fragments thereof, and/or T cell receptors or fragments thereof, as they show sufficient avidity to the MHC molecules and prevent dissociation of the MHC complexes.

Row | Peptide exchange | Substance
1 | +++ (>50 = +++) | 329 (QPANFIVLL; listed as Homo sapiens) [compound 329]
2 | ++++ (>75% = ++++) | 347 (SPLEKINSF; listed as Homo sapiens) [compound 347]
3 | ++++ (>75% = ++++) | 99 (MPVSAFTVI; listed as Homo sapiens) [compound 99]
4 | +++ (>50 = +++) | 202 (SPSREASAL; listed as Homo sapiens) [compound 202]
5 | ++ (>20% = ++) | 357 (LPPHIFAI; listed as Homo sapiens) [compound 357]
6 | +++ (>50 = +++) | 497 (YVVKPLHPF; listed as Homo sapiens) [compound 497]
7 | ++++ (>75% = ++++) | 453 (APALPGQVTI; listed as Homo sapiens) [compound 453]
8 | +++ (>50 = +++) | 335 (VPPQNPRPSL; listed as Homo sapiens) [compound 335]
9 | +++ (>50 = +++) | 2 (VPGSDPARYEFL; listed as Homo sapiens) [compound 2]
10 | +++ (>50 = +++) | 339 (GPQRTTSV; listed as Homo sapiens) [compound 339]
11 | ++++ (>75% = ++++) | 212 (VPYAAQAAL; listed as Homo sapiens) [compound 212]
12 | +++ (>50 = +++) | 292 (LPMTHRLQL; listed as Homo sapiens) [compound 292]
13 | +++ (>50 = +++) | 120 (TVRPKNAAL; listed as Homo sapiens) [compound 120]
14 | ++++ (>75% = ++++) | 469 (LPLDTRTSI; listed as Homo sapiens) [compound 469]
15 | +++ (>50 = +++) | 147 (HVAQPAVVL; listed as Homo sapiens) [compound 147]
16 | ++++ (>75% = ++++) | 136 (QPDHAGIFRVF; listed as Homo sapiens) [compound 136]
17 | ++ (>20% = ++) | 88 (KPSAVKDSIY; listed as Homo sapiens) [compound 88]
18 | +++ (>50 = +++) | 220 (RPAPGPAPFV; listed as Homo sapiens) [compound 220]
19 | ++++ (>75% = ++++) | 253 (MPVDSFNSML; listed as Homo sapiens) [compound 253]
20 | ++ (>20% = ++) | 95 (RTKEEINEL; listed as Homo sapiens) [compound 95]

Row | Peptide exchange | Substance
21 | ++++ (>75% = ++++) | 20 (MVLGIGPVL; listed as Homo sapiens) [compound 20]
22 | ++ (>20% = ++) | 277 (MPPLLIVAF; listed as Homo sapiens) [compound 277]
23 | +++ (>50 = +++) | 85 (MPMQDIKMILKM; listed as Homo sapiens) [compound 85]
24 | ++++ (>75% = ++++) | 42 (APLKMLAL; listed as Homo sapiens) [compound 42]
25 | ++++ (>75% = ++++) | 164 (RAAGRRLQL; listed as Homo sapiens) [compound 164]
26 | +++ (>50 = +++) | 227 (RPGTGQGGL; listed as Homo sapiens) [compound 227]
27 | ++++ (>75% = ++++) | 349 (QPRDGWPMML; listed as Homo sapiens) [compound 349]
28 | ++++ (>75% = ++++) | 16 (FPAPPAHWF; listed as Homo sapiens) [compound 16]
29 | +++ (>50 = +++) | 50 (PEKARAFL; listed as Homo sapiens) [compound 50]
30 | +++ (>50 = +++) | 306 (RPFPLALL; listed as Homo sapiens) [compound 306]
31 | + (>10% = +) | 111 (YPLQQTNVY; listed as Homo sapiens) [compound 111]
32 | +++ (>50 = +++) | 25 (RPQGAVGGL; listed as Homo sapiens) [compound 25]
33 | +++ (>50 = +++) | 39 (QPRPSSEKI; listed as Homo sapiens) [compound 39]
34 | ++++ (>75% = ++++) | 311 (APRLALDPDAL; listed as Homo sapiens) [compound 311]
35 | ++ (>20% = ++) | 484 (LPASAEPKGTM; listed as Homo sapiens) [compound 484]
36 | ++++ (>75% = ++++) | 93 (SVAIAHGVF; listed as Homo sapiens) [compound 93]
37 | +++ (>50 = +++) | 252 (QPENSLEGISL; listed as Homo sapiens) [compound 252]
38 | ++++ (>75% = ++++) | 259 (VPMPGVQAV; listed as Homo sapiens) [compound 259]
39 | +++ (>50 = +++) | 194 (HPNKIKASL; listed as Homo sapiens) [compound 194]
40 | ++ (>20% = ++) | 114 (FVPPSGPSNPM; listed as Homo sapiens) [compound 114]

Row | Peptide exchange | Substance
41 | ++ (>20% = ++) | 86 (ALLLRGVTL; listed as Homo sapiens) [compound 86]
42 | +++ (>50 = +++) | 300 (HPYSDLADVF; listed as Homo sapiens) [compound 300]
43 | ++++ (>75% = ++++) | 457 (RPPLSQRHTF; listed as Homo sapiens) [compound 457]
44 | +++ (>50 = +++) | 221 (LPQRPNARL; listed as Homo sapiens) [compound 221]
45 | +++ (>50 = +++) | 362 (KPMLPPAAF; listed as Homo sapiens) [compound 362]
46 | +++ (>50 = +++) | 52 (KEDNPSGHTYTL; listed as Homo sapiens) [compound 52]
47 | ++ (>20% = ++) | 273 (TDTPSTTPTTI; listed as Homo sapiens) [compound 273]
48 | +++ (>50 = +++) | 371 (APRSPGQVTPRGL; listed as Homo sapiens) [compound 371]
49 | + (>10% = +) | 235 (AQNPAGTAL; listed as Homo sapiens) [compound 235]
50 | +++ (>50 = +++) | 131 (MPFRNIRSIL; listed as Homo sapiens) [compound 131]
51 | +++ (>50 = +++) | 333 (SVLPRALSL; listed as Homo sapiens) [compound 333]
52 | +++ (>50 = +++) | 19 (WPRLPGAGL; listed as Homo sapiens) [compound 19]
53 | ++ (>20% = ++) | 141 (YGPYGSGSGW; listed as Homo sapiens) [compound 141]
54 | ++++ (>75% = ++++) | 213 (RPYQDAPVA; listed as Homo sapiens) [compound 213]
55 | +++ (>50 = +++) | 150 (APLHGGGSL; listed as Homo sapiens) [compound 150]
56 | + (>10% = +) | 119 (KATEYVHSL; listed as Homo sapiens) [compound 119]
57 | ++++ (>75% = ++++) | 176 (QPLDICHSF; listed as Homo sapiens) [compound 176]
58 | ++++ (>75% = ++++) | 40 (FPRTVKHIDAAL; listed as Homo sapiens) [compound 40]
59 | ++++ (>75% = ++++) | 375 (LPRGVLEGL; listed as Homo sapiens) [compound 375]
60 | ++++ (>75% = ++++) | 354 (APAKDARASL; listed as Homo sapiens) [compound 354]

Source: patent US20220289816A1, “IMMUNOTHERAPY WITH B*07 RESTRICTED PEPTIDES AND COMBINATION OF PEPTIDES AGAINST CANCERS AND RELATED METHODS” (Immatics Biotechnologies GmbH, priority 2018, published 2022)
